Data taken from FireProtDB (doi:10.1006/jmbi.2001.4956).

B1: Guanyl-specific ribonuclease Sa3, P30289 (parent)
chain: MRIPPRLVALAGAAAVAATLIAGPVAAAAPASHAVAASSAASASVKAVGRVCYSALPSQAHDTLDLIDEGGPFPYSQDGVVFQNREGLLPAHSTGYYHEYTVITPGSPTRGARRIITGQQWQEDYYTADHYASFRRVDFAC
B2: Guanyl-specific ribonuclease Sa, P05798 (parent)
chain: DVSGTVCLSALPPEATDTLNLIASDGPFPYSQDGVVFQNRESVLPTQSYGYYHEYTVITPGARTRGTRRIITGEATQEDYYTGDHYATFSLIDQTC

Variants of: B1
Conditions: Kitasatospora aureofaciens; pH 7; 25 °C; Thermal; CD; MOPS 30 mM; reversible: yes(>95 %); structure 1MGR; whole UniProt chain shown

With Y125F as the variant, how does the “ddG of mutation (higher = less stable)” value read?
Its value is 1.5 kcal/mol.

With Y75F as the variant, how does the “ddG of mutation (higher = less stable)” value read?
The value was -0.5 kcal/mol.

With Y131F as the variant, how does the “ddG of mutation (higher = less stable)” value read?
The value was 0 kcal/mol.

With Y100F as the variant, how does the “ddG of mutation (higher = less stable)” value read?
The value was 0.7 kcal/mol.

For Y97F, which “ddG of mutation (higher = less stable)” value is on record?
Its value is 2.1 kcal/mol.

With Y126F as the variant, how does the “ddG of mutation (higher = less stable)” value read?
The value was 1 kcal/mol.

Variants of: B2
Conditions: Kitasatospora aureofaciens; pH 7; 25 °C; Thermal; CD; MOPS 30 mM; reversible: yes(>95 %); structure 1RGG; whole UniProt chain shown

Which “ddG of mutation (higher = less stable)” value does the source give for Y52F here?
The value was 3.6 kcal/mol.

Which “ddG of mutation (higher = less stable)” value does the source give for Y30F here?
Its value is -0.4 kcal/mol.

For Y55F, which “ddG of mutation (higher = less stable)” value is on record?
Its value is 0.6 kcal/mol.

Which “ddG of mutation (higher = less stable)” value does the source give for Y49F here?
The value was 0.2 kcal/mol.

Which “ddG of mutation (higher = less stable)” value does the source give for Y81F here?
Its value is 1.2 kcal/mol.

Which “ddG of mutation (higher = less stable)” value does the source give for Y86F here?
The value was 0.3 kcal/mol.

With Y80F as the variant, how does the “ddG of mutation (higher = less stable)” value read?
Its value is 1.5 kcal/mol.
